Assay results from patent US20240336672A1.

What was measured:
Conditions in all cases: remark: other sources report otherwise
[1] = target: SARS-CoV-2 RBD (B.1.1.7) domain (SARS-CoV-2); assay: ELISA
[2] = target: SARS-CoV-2 RBD (B.1.351) domain (SARS-CoV-2); assay: ELISA
[3] = target: SARS-CoV-2 RBD (P.1) domain (SARS-CoV-2); assay: ELISA
[4] = target: T1, SARS-CoV-2 Spike ectodomain (tri-S), Wuhan (SARS-CoV-2), P0DTC2; assay: ELISA
[5] = target: T1, SARS-CoV-2 Spike ectodomain (tri-S), …; assay: tri-S capture ELISA
[6] = target: T1, SARS-CoV-2 Spike ectodomain (tri-S), …; assay: ELISA, coated antigen
[7] = target: SARS-CoV-2 RBD (B.1.1.7) domain (SARS-CoV-2); assay: RBD/ACE2 blocking ELISA
[8] = target: SARS-CoV-2 RBD (B.1.351) domain (SARS-CoV-2); assay: RBD/ACE2 blocking ELISA
[9] = target: SARS-CoV-2 RBD (P.1) domain (SARS-CoV-2); assay: RBD/ACE2 blocking ELISA
[10] = target: T1, SARS-CoV-2 Spike ectodomain (tri-S), …; assay: tri-S/ACE2 blocking ELISA
[11] = target: SARS-CoV-2 RBD (B.1.1.7) domain (SARS-CoV-2); assay: RBD-ACE2 competition ELISA; parameters: unit not given beside the values
[12] = target: SARS-CoV-2 RBD (B.1.351) domain (SARS-CoV-2); assay: RBD-ACE2 competition ELISA; parameters: unit not given beside the values
[13] = target: SARS-CoV-2 RBD (P.1) domain (SARS-CoV-2); assay: RBD-ACE2 competition ELISA; parameters: unit not given beside the values
[14] = target: SARS-CoV-2 RBD (B.1.1.7) domain (SARS-CoV-2); assay: RBD-ACE2 competition ELISA; parameters: unit not given beside the values; remark: listed apart in the source
[15] = target: SARS-CoV-2 RBD (B.1.351) domain (SARS-CoV-2); assay: RBD-ACE2 competition ELISA; parameters: unit not given beside the values; remark: listed apart in the source
[16] = target: SARS-CoV-2 RBD (P.1) domain (SARS-CoV-2); assay: RBD-ACE2 competition ELISA; parameters: unit not given beside the values; remark: listed apart in the source
[17] = target: T1, SARS-CoV-2 Spike ectodomain (tri-S), …; assay: competition ELISA vs bio-Cv2.1169
[18] = target: T1, SARS-CoV-2 Spike ectodomain (tri-S), …; assay: competition ELISA vs bio-Cv2.1353
[19] = target: T1, SARS-CoV-2 Spike ectodomain (tri-S), …; assay: competition ELISA vs bio-Cv2.3194
[20] = target: T1, SARS-CoV-2 Spike ectodomain (tri-S), …; assay: competition ELISA vs bio-Cv2.3235
[21] = target: T1, SARS-CoV-2 Spike ectodomain (tri-S), …; assay: competition ELISA vs bio-Cv2.5213
[22] = target: T1, SARS-CoV-2 Spike ectodomain (tri-S), …; assay: tri-S/ACE2 blocking ELISA [B]
[23] = target: T1, SARS-CoV-2 Spike ectodomain (tri-S), …; assay: SPR (Biacore), IgG immobilized, viral protein as analyte
[24] = target: T1, SARS-CoV-2 Spike ectodomain (tri-S), …; assay: competition ELISA, spike protein binding to ACE2 ectodomain
[25] = target: SARS-CoV-2 RBD (B.1.1.7) domain (SARS-CoV-2); assay: competition ELISA, biotinylated RBD to immobilized ACE2 ectodomain
[26] = target: SARS-CoV-2 RBD (B.1.351) domain (SARS-CoV-2); assay: as above
[27] = target: SARS-CoV-2 RBD (P.1) domain (SARS-CoV-2); assay: as above
[28] = target: T1, SARS-CoV-2 Spike ectodomain (tri-S), …; assay: SPR (Biacore), antibody coupled to CM5 chip, viral protein as analyte
[29] = target: T1, SARS-CoV-2 Spike ectodomain (tri-S), …; assay: biotinylated tri-S on immobilised ACE2, competition ELISA

B1: Cv2.3194 (recombinant human IgG1) (antibody)
heavy: EVQLVESGGGLIQPGGSLRLSCAASGITVTSNYMSWVRQAPGKGLEWVSVIYPGGSTFYADSVKGRFTISRDNSKNTLYLQMNSLRAEDTAVYYCARDLVVYGMDVWGQGTTVTVSSASTKGPSVFPLAPSSKSTSGGTAALGCLVKDYFPEPVTVSWNSGALTSGVHTFPAVLQSSGLYSLSSVVTVPSSSLGTQTYICNVNHKPSNTKVDKKVEPKSCDKTHTCPPCPAPELLGGPSVFLFPPKPKDTLMISRTPEVTCVVVDVSHEDPEVKFNWYVDGVEVHNAKTKPREEQYNSTYRVVSVLTVLHQDWLNGKEYKCKVSNKALPAPIEKTISKAKQPREPQVYTLPPSRDELTKNQVSLTCLVKGFYPSDIAVEWESNGQPENNYKTTPPVLDSDGSFFLYSKLTVDKSRWQQGNVFSCSVMHEALHNHYTQKSLSLSPGK
light: EIVLTQSPGTLSLSPGERATLSCRASQSVSSSYLAWYQQKPGQAPRLLIYGASSRATGIPGRFSGSGSGTDFTLTISRLEPEDFAIYYCQQGVTFGGGTKVEIKRTVAAPSVFIFPPSDEQLKSGTASVVCLLNNFYPREAKVQWKVDNALQSGNSQESVTEQDSKDSTYSLSSTLTLSKADYEKHKVYACEVTHQGLSSPVTKSFNRGEC
- OD405nm [1]: 3.4
- OD405nm [2]: 3.5
- OD405nm [3]: 3.4
- OD405nm [4]: 3.5
- triS Capt-ELISA [5]: 2.3
- ELISA OD [6]: 3.6 OD
- triS ELISA (AUC) [6]: 15.8 AUC
- % binding inhibition [7]: 97%
- % binding inhibition [8]: 95%
- % binding inhibition [9]: 94%
- % binding inhibition [10]: 97%
- AUC (RBD block.) [11]: 294
- AUC (RBD block.) [12]: 335
- AUC (RBD block.) [13]: 279
- AUC (RBD block.) [14]: 147
- AUC (RBD block.) [15]: 168
- AUC (RBD block.) [16]: 139
- % inhibition (competition) [17]: 81
- % inhibition (competition) [18]: 82
- % inhibition (competition) [19]: 86
- % inhibition (competition) [20]: 97
- % inhibition (competition) [21]: 84
- AUC of blocking [22]: 181
- Kd [23]: 0.459 nM
- koff [23]: 0.00112 s⁻¹
- kon [23]: 2.45e+06 M⁻¹ s⁻¹
- ACE2 Block (%) [24]: 91%
- IC50 [25]: 0.212 µg/mL
- IC90 [25]: 0.737 µg/mL
- IC50 [26]: 0.206 µg/mL
- IC90 [26]: 0.406 µg/mL
- IC50 [27]: 0.412 µg/mL
- IC90 [27]: 0.591 µg/mL
- Kd [28]: < 0.001 nM
- EC50 [29]: 0.31 µg/mL
